Experiment: protease stability score; higher = more stable; yeast display proteolysis, trypsin and chymotrypsin;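 further: relative to predicted unfolded state with 0 unfolded-like and 1 meaning tenfold more protease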

DEEKHILDRYWEEWLHALITGDEERLMELIDPNAKHVFNGKELHGRESLTELLRRLGMEIKDIRDHDLKVIGDKLHIDTRIDGIINGRQTTIRMHIIATKIDGKWVHTKLEVR
protease stability score: 1.23

DEEKHLALFLYRILVKWWLTGNEEDESHLADPHTRFEVNGVELIGRELSSHMIERELREIRVIIEIEEFRTVGDKVDIRLTLKYEYGDKEDSRESHLELIIIDGKTTHVEVRER
protease stability score: 1.6

DEEKHSAEHFMRLWIESFETGDEESIKRLMDPHAKSDFNGVEMHGREYLEVIKREMRVKSSRLHVKHIDVIDGVVIIEGRMILDGEINGVRTRLESDVRFVVEKFDGRWILRSSSIK
protease stability score: 1.31

DEEKKAIRKVWELVIHSLVTGDEDSVEKLLDPHVRVHINGVHLHGMETFRHTFHEWRLEIKSVHIQDMDSINGVARLDISFVGRFKFDGRVEETIIDIHLVVNKINGRWVIEEQKFE
protease stability score: 1.48

DEEKKANHFNKEFDRNVQRNNETELRKMVDPNARVNVGEQNYSGRNKMVKIITDWLRKYDKFTIDVRRIDVHGNRIFIDFEMVVVSNGQRRTTEIRVVVEEHNGRLHIRVWEIT
protease stability score: 1.03

DEEKKDIKHWLEKWITDTRTGDEEEILKMLDPNVRTEQGEFELHGRDALKHYIDRFDHIHEVDLEVKHVTEQGDKLHIKGTLRMDGIVDGVRRTFYFRTILIVRKIDGRWAVSRVILL
protease stability score: 2.32

DEEKKDLDILIEILFEIIYTGNEEKFRELVDPNAKSRVGDKKTHGREDATKLLSKKWRHMRIRTMDVHDFRHYDGQIDVDSRLDGDINGVELLLEVRLILVKYDGRWLIKNIHIQ
protease stability score: 1.43

DEEKKDLERLYELLLRSMFTGDWRALEELMDPNVLLQVNGKELHGWKLMVRVMREIRIEDHEVKHIELQGDKIHMDTRTHGEFDGRTDTTKTHVLAKKVDGQWRLKHYKID
protease stability score: 0.932

DEEKKDVHKIWELFVEHYYTGDEEFLHRMADPNVRSDVNGKELHGRESLLSLMREWIDRADVIQHIDVEDRRIQGDKAYIRTRFVGLVNGKPVSTDVTIILSKVNGQWFMHRIVIK
protease stability score: 1.61

DEEKKEILEIARRVIESLLTGDWEEDHELADPNVLYIQGDKEVHGMETTWRIIFELRHQIKGMTEHIHIRRVEIVNGVAHLDTELRLNVNGREVTHETHVHIFLYNGRVKRIEVRIK
protease stability score: 1.48

DEEKKEIQKAVDLMRHLLVTGDENTLHHLLDPNVRLIVGDKFFHGREELIRVWSEEIESMGFDHVEMHVRHVRVIGDKADVQMEIRFDVNGREHSREFRVRLRKIDGQWVIKSIEIR
protease stability score: 2.15

DEEKKEQRHFLKKLADSIATGDEESLEKMVDPNAKSVVNGVEQHGMELMVENLREWLERLGVTKISFHEKRFRLIGNKLEVDGTIEVNGKKFESHFIVEKVDGQWRIREIRLH
protease stability score: 0.931

DEEKKEVNRIFELWARLFETGDEDSIHRLLDPNARLEVNGQEIHGRHNISRTFLEFKERFKGIKIELILREVRVIGDKVHIHSELRVNINGREESFETDIDLVVIDGKLHSFRFHVH
protease stability score: 2.48

DEEKKFIHYLAHLLIELILTGDEDTFEKLADPDVRLSIFAENHELHWHGREEVLRELIHWTRRVDHIHMKLDHSRIINGKSHMDGNLVDIQGDKKIEKKVTVILVVVNGKVKRIEIWIG
protease stability score: 1.47

DEEKKFYIKLFELFWRAWLTGNEQFLLEMADPNVKVEYTYNGRDVRTHGRETMYTFLHEILRYLGVKHSRLRRDEFQGDKVHLDVEEHFNGRTVKTLIIIDVVDGRLEIDKFHTT
protease stability score: 0.705

DEEKKKFEHWVKLVIHALLTGDEKHLNDMADPNVKVRSVFNGRHVELHGRENEHRWLEKLRKRLGVDHIEITDSVIQGDKVEIDSRYIQGDKEFKSSIHIVVVNGRTHENEFIFH
protease stability score: 1.1

DEEKKLAHKIARILMDLFLTGNEEVWKELMDPHVKFEIGDFIDHGWEAVKRYYEVLGFDHIQETDLESIVIFENHVILHIRIHGEVNGRQVDTTVTLFIEKINGKWYIRTIRIH
protease stability score: 2.5

DEEKKLMLESMKQTLDKIFTGDFDSTAEYLDPHARYIIGDKTLHGMERWKEFLDRFDHVHIHDVKLHSVRIIDGVAILDGRIDTEIIINGVRIRETVEVQIVIVKVNGRWKDERVEFK
protease stability score: 0.13

DEEKKLSDFAFRLLEENLRTGNEDDIRRYADPSVKIEVGDKTIHGMEAVSRVITEWRVHDLKIEREEIQGNKVHIDSNIDGQVGEKREHSLLILIMVKVNGRWVIKSIRIH
protease stability score: 0.386

DEEKKLYHHIWDRLRRALETGNEEELHKLADPDVRVIIGDKHFHGRDELYRLTEEIRVVITEIRLHDKDHQGDKVILDVEERVNVQVDGKETEYRFRSTLYFVKINGRWTLRRIELK
protease stability score: 1.52

DEEKKNIERLTEILAHVIRTGDEESWERMMDPNARATQGDKVMVGRDLLEHLWRRIDVIDHVRLEPKHVHRQGDKIHIDVENEVHGTVNGVKISEKHKEILVIYKFDGRWHFHSIEIT
protease stability score: 0.064

DEEKKQVKDMMELYFRLFVTGNEEILTHLADPDTRIEIDGVSRVGMEEFKRMLEEYLKRLGADHIELRHWDIKFFNGRAINRLHIHIHYGDKSEDVRVTLILEKIDGRWRNRSEHREVG
protease stability score: 0.771

DEEKKSSDIAIHESLRVLKTGDEHDISEMMDPHVRIDINGREIIGMELASEIHHEIMNRIKNVRIEVKDRKLVNGQIILRGELRWNGQTVELEVTLKKINGKWWMESLHVR
protease stability score: 0.606

DEEKKVAMELAILLFHLWLTGDEETERRLADPDTRMDVDGKDIIGREELSKVWERILKEMRFDRWEVDRVDVVNGQVHLHGHIRGKYNGKEETREIEITINIVNGRLKSVHFNLR
protease stability score: 1.87

DEEKKVAQTFLELLYRAIHTGDEDEIRRMMDPNYRMEINGKEFHGREDIVHRLVRIEKHLGFKHFHIKDMRTVGDKIDLHTEVIIGDFRWDVHIHIEKVNGRWLQTERRIE
protease stability score: 0.521

DEEKNLIIELVHLFLVAFWTGNEELLRHLADPDVRFEIDGREHHGREELEKHLEHWWMKIEHIEEKEIRVIDGRVHIDGHVRGTLIINGRENRISYDVEIHAEVIDGRFKYVKVKQK
protease stability score: 2.48

DEEKQDMDTAIKIFVEEYKTGDEENLLRNMDPEARVRQGDKHFHGREEVWKFWRRLFHDAGLDNVNVELRHITSQGNKIEVRGVLRIGDKELDVEFILKKVDGRWLIKFILFR
protease stability score: 1.91

DEEKRDAREFLHLLFHAMITGDEDLVRHLADPHVKLDVNGRELHGWELFLTWFKRLLEEIRLTDIDVHHIELQGNKIILDTRLHVRVGDKEVDIHTEFHVVKVNGKWRLKTMRTE
protease stability score: 2.61

DEEKRDVDDAKEVWDRIFKTGDEHQLERNFDPNVRQHIDGREHVGREEFRKEFHKILLLLGVKHLRIEFHDEEYQGDKIILRGTLFFEVNGRIEIWIVTIIARKVNGQWLVHTVHHN
protease stability score: 0.425

DEEKRFHHKLLRLFLESFLTGDWRLWYKLADPNARFHAPNHESHGREEVVEMIFKWLKQYDHVEIRIHDVRYYNGQIRMDVELHFRQGDKETSTKLDLILIVVDGRITEVHFDVR
protease stability score: 0.916

DEEKRHDEKLVEDFIHNVLTGDWEKLLRNMDPHARIHVDVGNFREERVGREDWIETLARRKNARFHIESYRIYNGQVDMEVRIEQGDKEHKFKLIIKFVDGVVRSISMQVE
protease stability score: 1.26

DEEKRHHDEWRQFFLDSIKTGNWFELLKMIDPNTKILINGKEFHGRDAMHHFLTELRRRVDHLERFDIHHIDIQGNKAFDDTRLEGRINGVETHIDLLLISTKVNGVWYLKSVELR
protease stability score: 2.13

DEEKRHSDEIIEEWVRSLITGDEKRIRELHDPTTLLNNENEKYHGMEIATELRRRIRENMGIKHSEVRVHDIEWQGDKITIYGRLILRFNGKEVEHELLIVATKINGRWVLRSMRIE
protease stability score: 1.48

DEEKRLLEEAARHMVDSWRTGDEEVIERMMDPHDKLILYINGVNFDLHGREIVSRWIKEELDEIRIRINVEDIKVFNGVAFVDGELRVEINGREKRVKEEIILFIIDGRLKSHEIRRH
protease stability score: 1.23

DEEKRRASELIIHLWHNFLTGNEDRFRELFDPNVKAKLDVGDKSVDHIGRDHVLDWLRLVRHEIRIHHYEHKRERVYGDKWESDGHVDGEFNGRRTETHFEIILVIIDGKLHFLILNFH
protease stability score: -0.076

DEEKRRSHELADLWWEMLETGDWDRTKNLMDPDTRLHIGDKEDHGMENFYRFRKDFESQFPNMRIELKSHRVQGDFFEIKGKINFNGRLVEAEIRVKIVDGRLKEIHVHIK
protease stability score: 0.821

— the NTF2 design screens of Basanta et al. (2020)
